Measurements: the supplement of paper PMC11780869

What follows are sequences tested on Bacillus subtilis (assay: cleaved RNA product abundance (RNA/gDNA barcode ratio) relative to median wild-type variant (ratio to wild type); higher = more accumulation of the downstream cleavage product). Details: experiment (reporter, strain, medium): exp 2b: truncated aprE reporter, strain BJT200; cleavage site: cggR-gapA (positions -7 to +36 mutated).
Method in brief: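 Oligos with a 9% error rate were used to build barcoded, mutagenized RNase Y cleavage-site windows within truncated aprE or tetM reporter mRNAs, which were integrated into the B. subtilis chromosome. Cultures were grown in LB at 37°C between OD600 0.0003 and 0.3. Cleaved RNA was gel-selected, reverse transcribed and barcode-sequenced, as were genomic DNA barcodes, and UMIs were collapsed. Cleaved product abundance is the scaled RNA:gDNA barcode ratio, with the median construct carrying the unmutated site as reference.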

| Sequence | cleaved RNA product abundance |
| --- | --- |
| ACAGACGAAGGAGCCGCAAAGTAGTTATTAAGTGATGAATAATCCCTCAATATAAATATCTCTCACTTATTTAAA | 0.106 |
| ACAGACGAAGGAGCCGCAAAGATGTTATTAAGGGATGAATAATCCCTCAATATAAATAACTCTCACTTATTTAAA | 0.767 |
| ACAGACGAAGGAGCCGCAAAGGAGTTATTAAGGGATGAATAATACCTCAATATAAATATCTCTCACTTATTTAAA | 0.131 |
| ACAGACGAAGGAGCCGCAAAGAAGTTATTAAGTGATCAATAATCCCTCAATATAAATATCTCTCACTTATTTAAA | 0.0674 |
| ACAGACGAAGGAGCCGCAAGGAAGCTATTAAGGGATGAATAATCCCTCAATATAAATATCTCTCACTTATTTAAA | 0.644 |
| ACAGACGAAGGAGCCGCAAAGAAGTTATTAAGGGATGAATAATCCCTTAATATAAACATCTCTCACTTATTTAAA | 0.304 |
| ACAGACGAAGGAGCCGCAAAGAAGTTATTAAGTGATGAATAATCCCTCAATACAAATATCTCTCACTTATTTAAA | 0.102 |
| ACAGACGAAGGAGCCGCAAAGAAGTTATTAAGGGATGAATAATCCCTAAATATAGATATCTCTCACTTATTTAAA | 0.495 |
| ACAGACGAAGGAGCCGCAAAGAAGTTATTAAGGGATCAATAATCCCTAAATATAAATATCTCTCACTTATTTAAA | 0.551 |
| ACAGACGAAGGAGCCGCAAAGAAGTTATTAATGGATGAATAATCACTCAATATAAATATCTCTCACTTATTTAAA | 0.106 |
| ACAGACGAAGGAGCCGCAAAAAAGTTATTAAGGGCTGAATAATCCCTCAATATAAATATCTCTCACTTATTTAAA | 0.478 |
| ACAGACGAAGGAGCCGCAAAGAAGTGATGAAGGGATGAATAATCCCTCAATATAAATATCTCTCACTTATTTAAA | 0.446 |

Same assay, conditions: experiment (reporter, strain, medium): exp 4a: truncated aprE reporter, strain BJT201 with 2% xylose (RNase J1 expressed); cleavage site: cggR-gapA (positions -7 to +36 mutated)

| Sequence | cleaved RNA product abundance |
| --- | --- |
| ACAGACGAAGGAGCCGCAAAGAAGTTATTATGGGATGAATACTCCCTCAATATAAATATCTCTCACTTATTTAAA | 0.212 |
| ACAGACGAAGGAGCCGCAAAGAAGTTATTAAAGGATGAATAATCCCTCAATATAAATAGCTCTCACTTATTTAAA | 0.176 |
| ACAGACGAAGGAGCCGCAAAGTAGTTATTAAGTGATGAATAATCCCTCAATATAAATATCTCTCACTTATTTAAA | 0.116 |
| ACAGACGAAGGAGCCGCAAAGAAGTTATTAAGGGTTGAATAATCCCTCAAAATAAATATCTCTCACTTATTTAAA | 0.222 |
| ACAGACGAAGGAGCCGCAAAGTAGTTATTAAGGGTTGAATAATCCCTCAATATAAATATCTCTCACTTATTTAAA | 0.364 |
| ACAGACGAAGGAGCCGCAAAGAAGTTATTAAGGGATGAATAGTCCTTCAATATAAATATCTCTCACTTATTTAAA | 0.359 |
| ACAGACGAAGGAGCCGCAAAGAAGTTATTAAGAGATGAATAATCCCTCAATATAAATAGCTCTCACTTATTTAAA | 0.106 |
| ACAGACGAAGGAGCCGCAAAGAAGTTATTAAGGGATGAATAATTCCTCTATATAAATATCTCTCACTTATTTAAA | 0.248 |
| ACAGACGAAGGAGCCGCAAAGATGTTATTAAGGGATGAATAATCCCTCAATATAAATAACTCTCACTTATTTAAA | 0.897 |
| ACAGACGAAGGAGCCGCAAAGGAGTTATTAAGGGATGAATAATACCTCAATATAAATATCTCTCACTTATTTAAA | 0.192 |
| ACAGACGAAGGAGCCGCAAAGAATTTATTAAGGGATGAATAATCCCTCCATATAAATATCTCTCACTTATTTAAA | 0.424 |
| ACAGACGAAGGAGCCGCAAAGAAGTTATTAAGTGATCAATAATCCCTCAATATAAATATCTCTCACTTATTTAAA | 0.137 |
| ACAGACGAAGGAGCCGCAAAGAAGTTATTAAGGTATGAATAAGCCCTCAATATAAATATCTCTCACTTATTTAAA | 0.13 |
| ACAGACGAAGGAGCCGCAAAGAAGTTATTAAGGGATGAATAATCACTCAATATACATATCTCTCACTTATTTAAA | 0.109 |
| ACAGACGAAGGAGCCGCAAAGAAGTTATTAAGGGATGAAAAATCCCTCAAAATAAATATCTCTCACTTATTTAAA | 0.333 |
| ACAGACGAAGGAGCCGCAAACAAGTTATTAAGGGATGAATAATCCGTCAATATAAATATCTCTCACTTATTTAAA | 0.187 |
| ACAGACGAAGGAGCCGCGAAGAAGTTATTAAAGGATGAATAATCCCTCAATATAAATATCTCTCACTTATTTAAA | 0.258 |
| ACAGACGAAGGAGCCGCAAAGAAGTTAATAAGGGATGAATAATCCCTCAACATAAATATCTCTCACTTATTTAAA | 0.342 |
| ACAGACGAAGGAGCCGCAAAGAAGTTATTAAGGGATGAATAATCCCTCAGAATAAATATCTCTCACTTATTTAAA | 0.197 |
| ACAGACGAAGGAGCCGCAAAGAAGTTATTAAGGGATGAATAATCCCTTAATATAAACATCTCTCACTTATTTAAA | 0.216 |

| Sequence | cleaved RNA product abundance |
| --- | --- |
| ACAGACGAAGGAGCCGCAAAAAAGTTATTAAGGGATGAAGAATCCCTCAATATAAATATCTCTCACTTATTTAAA | 0.918 |
| ACAGACGAAGGAGCCGCAAAGAAGTTATTAAGTGATGAATAATCCCTCAATACAAATATCTCTCACTTATTTAAA | 0.057 |
| ACAGACGAAGGAGCCGCAAAGAAGTTTTTAAGGGATGAATAATCCCTCAATTTAAATATCTCTCACTTATTTAAA | 0.188 |
| ACAGACGAAGGAGCCGCACAGAAGTTATTAAGGGATGAATAATCCCTTAATATAAATATCTCTCACTTATTTAAA | 0.633 |
| ACAGACGAAGGAGCCGCAAAGAAGTTATTAAGGGATGAATAATCCCTGAATATAAACATCTCTCACTTATTTAAA | 0.413 |
| ACAGACGAAGGAGCCGCAAAGAAGTTATTAAGGGATGAATAATCCCTAAATATAGATATCTCTCACTTATTTAAA | 0.551 |
| ACAGACGAAGGAGCCGCAAATTAGTTATTAATGGATGAATAATCCCTCAATATAAATATCTCTCACTTATTTAAA | 0.153 |
| ACAGACGAAGGAGCCGCAAAGAAGTTATTAAGGGATCAATAATCCCTAAATATAAATATCTCTCACTTATTTAAA | 0.657 |
| ACAGACGAAGGAGCCGCAAAGAAGTTATTAAGGGATGAATAATCACTCAGTATAAATATCTCTCACTTATTTAAA | 0.0778 |
| ACAGACGAAGGAGCCGCAAAGATGTCATTAAGGGATGAATAATCCCTCAATATAAATATCTCTCACTTATTTAAA | 0.205 |
| ACAGACGAAGGAGCCGCAAAGAAGTTATTAAGGGATGAGTAATCACTCAATATAAATATCTCTCACTTATTTAAA | 0.264 |
| ACAGACGAAGGAGCCGCAAAGAAGTTATTAATGGATGAATAATCACTCAATATAAATATCTCTCACTTATTTAAA | 0.141 |
| ACAGACGAAGGAGCCGCAAAGAAGTTATTAAGGGATCAATAATTCCTCAATATAAATATCTCTCACTTATTTAAA | 0.22 |
| ACAGACGAAGGAGCCGCAAAGAAGAAATTAAGGGATGAATAATTCCTCAATATAAATATCTCTCACTTATTTAAA | 0.129 |
| ACAGACGAAGGAGCCGCAAAGAAGTCATTAAGGGATGAATAATCCCCCAATATAAATATCTCTCACTTATTTAAA | 0.113 |
| ACAGACGAAGGAGCCGCAAAAAAGTTATTAAGGGCTGAATAATCCCTCAATATAAATATCTCTCACTTATTTAAA | 0.694 |
| ACAGACGAAGGAGCCGCAAAGAAGTTATTAAGGGTTGAATAATCCCACAATATAAATATCTCTCACTTATTTAAA | 0.0861 |
| ACAGACGAAGGAGCCGCAAAGAAGATATCAAGGGATGAATAATCCCTCAATATAAATATCTCTCACTTATTTAAA | 0.522 |
| ACAGACGAAGGAGCCGCAAAGAAGTTATTAGGGGATTAATAATCCCTCAATATAAATATCTCTCACTTATTTAAA | 0.866 |

Same assay, conditions: experiment (reporter, strain, medium): exp 8a: truncated aprE reporter, strain BJT201 with 2% xylose (RNase J1 expressed); cleavage site: glnRA (positions -5 to +31 mutated)

| Sequence | cleaved RNA product abundance |
| --- | --- |
| CGACATGTCCCGCTTCTTTCATTATTCCGTTAACAACTGTTTTGCTATATACTTTTACCTTTTAAGAGGAGGAAT | 0.273 |
| CGACATGTCCCGCTTCTTTCATTAATCCGTGAGCAACTGTTTTGCTATATAAATTTACCTTTTAAGAGGAGGAAT | 0.357 |
| CGACATGTCCCGCTTCTTTCATTATTCCGTTGGCAACTGTTTTGCTATATACATTTACCTTTTAAGAGGAGGAAT | 0.851 |
| CGACATGTCCCGCTTCTTTCATTAATCCGTTAGCAACTGTTTTGCTATGTACATTTACCTTTTAAGAGGAGGAAT | 0.215 |
| CGACATGTCCCGCTTCTTTCATTAATGCGTTAGCAACTGTGTTGCTATATACATTTACCTTTTAAGAGGAGGAAT | 0.406 |
| CGACATGTCCCGCTTCTTTCATTAATCCTTTAGCAACTGGTTTGCTATATACATTTACCTTTTAAGAGGAGGAAT | 0.306 |
| CGACATGTCCCGCTTCTTTCATTAATCCGTTAGCAATGGTTTTGCTATATACATTTACCTTTTAAGAGGAGGAAT | 1.08 |
| CGACATGTCCCGCTTCTTTCATTAATCCGTTAGCAACTGTTTTGAAATATACATTTACCTTTTAAGAGGAGGAAT | 0.462 |
| CGACATGTCCCGCTTCTTTCATTAATCTGTTAGCTACTGTTTTGCTATATACATTTACCTTTTAAGAGGAGGAAT | 0.743 |
| CGACATGTCCCGCTTCTTTCATTAATCCGTTAGAAACTGTTTTGCTATAAACATTTACCTTTTAAGAGGAGGAAT | 0.203 |
| CGACATGTCCCGCTTCTTTCATTAATCCGTTAGCAACTGTGTTACTATATACATTTACCTTTTAAGAGGAGGAAT | 0.274 |
| CGACATGTCCCGCTTCTTTCATTAATCTGTTAGCAACCGTTTTGCTATATACATTTACCTTTTAAGAGGAGGAAT | 0.436 |
| CGACATGTCCCGCTTCTTTCATTAATCCGTTAGCAACTGTTTTGCTATATACATCTACCTTTTAAGAGGAGGAAT | 0.867 |
| CGACATGTCCCGCTTCTTTCATTAATCCGTTAGCAACTGTTTTGCTATATAAATGTACCTTTTAAGAGGAGGAAT | 1.78 |
| CGACATGTCCCGCTTCTTTCATTAATCCGTTAACAATTGTTTTGCTACATACATTTACCTTTTAAGAGGAGGAAT | 0.135 |
| CGACATGTCCCGCTTCTTTCATTAATCCGTTAGCAACTGTTATGGTATATACATTTACCTTTTAAGAGGAGGAAT | 0.161 |
| CGACATGTCCCGCTTCTTTCATTAATCCGTTAGCAACTGTTTTGCAATATACATTTCCCTTTTAAGAGGAGGAAT | 0.589 |
| CGACATGTCCCGCTTCTTTCATTAATCCGTTACCAACTGTTTTGCTATATACCTTTACCTTTTAAGAGGAGGAAT | 0.153 |
| CGACATGTCCCGCTTCTTTCATTAATCCGTTAAAAACTGTTTTGCTATATACATTTACCTTTTAAGAGGAGGAAT | 0.292 |
| CGACATGTCCCGCTTCTTTCATTAATCCGTTAGCAACTGTTTTGCTATATACATTTAACTTTTAAGAGGAGGAAT | 1.24 |
| CGACATGTCCCGCTTCTTTCATTATTCCGTTAGCAACTGTTTTGCCATATACATTTACCTTTTAAGAGGAGGAAT | 0.346 |
| CGACATGTCCCGCTTCTTTCATTAATCCGTTAGCAACTGTTTTGTTATATACATTTAGCTTTTAAGAGGAGGAAT | 0.257 |
